Consider one substance from patent US20210371503A1.

Where two headings read alike, the source gives them in different places.

The target of assay [1] is the antigen (SARS-CoV-2 spike (S) protein, form not stated in Example 13) (SARS-CoV-2) (UniProt P0DTC2).
The target is the same in assay [2]. The assay is described as follows: SPR relative binding activity; reference standard, initial.
Assay [3] has the same target. The assay is described as follows: SPR relative binding activity; formulation F5, control unnebulized.
Assay [4] has the same target. The assay is described as follows: SPR relative binding activity; formulation F5, nebulized with Droh.
The target is the same in assay [5]. The assay is described as follows: SPR relative binding activity; formulation F5, nebulized with Pariboy.
Assay [6] shares this target. In words: SPR relative binding activity; formulation F5, nebulized with eFlow-Rapid.
Assay [7] shares this target. In words: SPR relative binding activity; formulation F5, nebulized with Aerogen Solo.
For assay [8] the target is unchanged. The assay is described as follows: SPR relative binding activity; undiluted 50 mg/mL, formulation F5, initial.
Assay [9] has the same target. In words: SPR relative binding activity; undiluted 50 mg/mL, formulation F6, initial.
Assay [10] has the same target. In words: SPR relative binding activity; undiluted 50 mg/mL, formulation F7, initial.
Assay [11] has the same target. The assay is described as follows: SPR relative binding activity; undiluted 50 mg/mL, formulation F8, initial.
Assay [12] has the same target. The assay is described as follows: SPR relative binding activity; undiluted 50 mg/mL, formulation F5, nebulized.
Assay [13] shares this target. The assay is described as follows: SPR relative binding activity; undiluted 50 mg/mL, formulation F6, nebulized.
Assay [14] has the same target. The assay is described as follows: SPR relative binding activity; undiluted 50 mg/mL, formulation F7, nebulized.
The target is the same in assay [15]. The assay is described as follows: SPR relative binding activity; undiluted 50 mg/mL, formulation F8, nebulized.
For assay [16] the target is unchanged. In words: SPR relative binding activity; 1:5 diluted 10 mg/mL, formulation F5, initial.
Assay [17] shares this target. The assay is described as follows: SPR relative binding activity; 1:5 diluted 10 mg/mL, formulation F6, initial.
For assay [18] the target is unchanged. The assay is described as follows: SPR relative binding activity; 1:5 diluted 10 mg/mL, formulation F7, initial.
Assay [19] has the same target. The assay is described as follows: SPR relative binding activity; 1:5 diluted 10 mg/mL, formulation F8, initial.
Assay [20] has the same target. In words: SPR relative binding activity; 1:5 diluted 10 mg/mL, formulation F5, nebulized.
Assay [21] shares this target. The assay is described as follows: SPR relative binding activity; 1:5 diluted 10 mg/mL, formulation F6, nebulized.
For assay [22] the target is unchanged. The assay is described as follows: SPR relative binding activity; 1:5 diluted 10 mg/mL, formulation F7, nebulized.
Assay [23] shares this target. In words: SPR relative binding activity; 1:5 diluted 10 mg/mL, formulation F8, nebulized.

DZIF-10c (antibody), sequence (VH): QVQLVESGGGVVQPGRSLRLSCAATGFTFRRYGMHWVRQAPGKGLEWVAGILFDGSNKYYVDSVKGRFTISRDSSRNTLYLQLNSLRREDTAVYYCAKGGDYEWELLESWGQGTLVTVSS
DZIF-10c (antibody), sequence (VL): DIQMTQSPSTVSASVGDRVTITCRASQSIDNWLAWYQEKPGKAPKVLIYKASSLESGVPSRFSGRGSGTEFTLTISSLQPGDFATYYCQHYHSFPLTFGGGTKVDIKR

As for DZIF-10c (antibody), the SPR Binding Activity (RLCA %) in [1], in [2], in assay [3], in assay [4], in assay [5] and in assay [6] was 100% throughout. Moreover, the SPR Binding Activity (RLCA %) in [7] was determined as 100%; in assay [8], 96%; in assay [9], 95%; in assay [10], 96%; in assay [11] it was 96%; in assay [12] it was 96%. The SPR Binding Activity (RLCA %) in assay [13], in [14], in assay [15], in assay [16], in assay [17] and in assay [18] was 96% each time. Also, the SPR Binding Activity (RLCA %) in assay [19], in assay [20], in assay [21], in assay [22] and in [23] was 96% throughout.
